Laboratory results published in ChEMBL document CHEMBL2073751, “Adenosine triphosphate-dependent transport of estradiol-17beta(beta-D-glucuronide) in membrane vesicles by MDR1 expressed in insect cells” (Hepatology, 1998).

System: C[C@]12CC[C@@H]3c4ccc(O)cc4CC[C@H]3[C@@H]1CC[C@@H]2O[C@@H]1O[C@H](C(=O)O)[C@@H](O)[C@H](O)[C@H]1O
Assay: TP_TRANSPORTER: uptake in membrane vesicle from MDR1-expressing Sf9 cells
Format: functional, cell membranes

ATP-dependent translocase ABCB1 (Homo sapiens)
Km: 62 µM
